# Assay results: PMC545490, “Mapping and mutation of the conserved DNA polymerase interaction motif (DPIM) located in the C-terminal domain of fission yeast DNA polymerase δ subunit Cdc27” (BMC Molecular Biology, 2004)
# B1: Gal4-Cdc27-273-352 (wild type) [S. pombe] / LexA-Pol1-278-527 [S. pombe] (parent complex)
# chain 1: TEAKSAAPDEPQEIIKSVSGGKRRGKRKVKKYATTKDEEGFLVTKEEEVWESFSEDENISTGTSNVVRNKPTTVNIATKK
# chain 2: PLSPMTPLSSELDVSAFSEINSKIKNVDVPASSYSSPISKVSPSDVTEEDGSLFFFWMDYTEMYGSLCLFGKVYDKATKQYVSCFLKVDGIMRSLYFLPRPSSSSVSEDSIAAQTKDVYDEVANLLSKRGVKEWKSRVSKYKYAFELEDVPRTADYLEVIYSYSYPALPTDLTGSSFSHVFGTNTALFEQFVLSRRVMGPCWLKIQQPNFDAVKNASWCRVEIGCSSPQNISVSFEKNEITSKTPPMTVM
# Variants of: B1
# Assay: yeast two-hybrid, β-galactosidase activity in liquid cultures; parent: 150; read off a plot
row,Variant,response
1,"chain 1 K30A, chain 1 K31A",~35 Miller units
2,"chain 1 K22A, chain 1 R23A, chain 1 R24A",~46 Miller units
